Source: the domain aggregation screens of Martell et al. (2025)

Assay: soluble fraction after stress (log2 fold change); higher = more stays soluble; pooled small domains, quantitative proteomics
Conditions: stress: pH 4
Method in brief: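 Values are on a log2 scale, where higher means more of the domain stayed soluble after pH 4 stress. They are fold changes in the soluble amount of each domain from pooled custom libraries, measured by high-throughput quantitative proteomics. The fold change is taken to reflect aggregation propensity.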
For “HMIILYTDEQQRIIDRLNEFIGEQPSQNEAAKLLGISAPILTNLRKGTYTGTVDKFMNKLAAYFNIKADLG”, the “soluble fraction (log2)” value was -0.372. In the case of “HMIIMVNLYQIWDKEVQGLDSVGAKPEQIEARRQAIAAHFESKARQAGMSSKDIYATLDNFDTYSRQKTS”, the “soluble fraction (log2)” value is reported as -1.3. With “HMIINFDAIRLTTELNKYNRHKAIPNSFFDGTFTILDVRDLYDSLSPKVQKIADTLIEQYNVDVKQ” the “soluble fraction (log2)” value was -1.22. With “HMIISMKKGATPQEISHVRKLIEELGYKVHESQGSERMVFGAIGDERSKHRLTSLEAQPGVEKVIPILA” the “soluble fraction (log2)” value was 0.168. With “HMIISMKKTATKEQIAHVRELIEGMGYKAHMSVGAERVIFGAIGDERGKERLVSLEAQPGVEKVIPIL” the “soluble fraction (log2)” value was ≥ 0.43. With “HMIITLNIENLKRARENAGLTQTQAAQKIGVSDGTYKNYEQGKREPNGDKIVTIANAFGVTTDYLLGR” the “soluble fraction (log2)” value was 0.22. With “HMIIVMRKGATEAQVNDIVERVRAAGFGVHLSQGEERTIIGAIGGDRAVLADLNLEAAPGVERVTPIS” the “soluble fraction (log2)” value was -0.0491. With “HMIIYGLNPVKDFINLFPNKISTLFISKNKLSDSEMKSVVNINTVYVSDAELKRITGTTKHQSLAAEID” the “soluble fraction (log2)” value was -0.721. For “HMIKILGSAYRHGLDDDDILRAWNYHIQEFFEGEDPEKIVRLGFDTHGRLLEIGGEIYPGGGEKIFHAM”, the “soluble fraction (log2)” value was -0.719. In the case of “HMIKITLPDGSVKEYKKGITPAEVAQSISEGLARNVISASYNGKTIETVTPLTTDGSLVLYTWDSPEGK”, the “soluble fraction (log2)” value is reported as -0.168. For “HMIKLTVRQQEILDLIARSIDQTGFPPTRAEIAAELGFKSVNAAEEHLQALARKGVIEMVPGISRGIRLVQ”, the “soluble fraction (log2)” value was -0.306. For “HMIKRNPLDEIEGVGPGRKKALLHAFGSAKGVSRASVVDLVKVEGVSQALAERIHDFFHPATR”, the “soluble fraction (log2)” value was 0.198. For “HMIKSIRELAEVITLWKNQGKTILIAEHRLSYLMDLADRVLYMKDGQIENDFSMADFRKIPPDEISRMGLR”, the “soluble fraction (log2)” value was -0.532. With “HMIKVAANESNRSDVLEIVRLFRVRVVDVNPESLTIEATGAEGKIDALLGLLEHYGVIELVRSGAVAVT” the “soluble fraction (log2)” value was -1.1. For “HMILESREKYLGEVLEVLVEEEKEGEYFGYSQNYLRVKFKLEEKNLINQLINIKIKSIEDDILIGEKEN”, the “soluble fraction (log2)” value was -2.36. For “HMILKNVTSDLANKRLDKVASILFQTYSRTQIKKWILEGRVLVNGEISNPKDHVHENDEIEINPI”, the “soluble fraction (log2)” value was ≥ 0.43. With “HMIMISKSFEINEDNINKRLDIFLTENLDGLSRGIVQKYISLEQITVNKESSHKDYRLKLDDFIEVKIQAH” the “soluble fraction (log2)” value was -1.06. With “HMIMNDIQAKVLEIAETKDLGSITYYRLSKMLGVDHPYRVKYAIDKLIEKGLLTAKSDGSITKAI” the “soluble fraction (log2)” value was 0.204. With “HMIMTTKVSGIMFDKFNPSAILNINGMDYLVRSGDIINGYKILSIGQETVTVQYGANVYKASVG” the “soluble fraction (log2)” value was -0.603. For “HMIMVAGHLQIKKGKYYMVLELKSESGERKTKWISTGLSAKGNKRKAEAMLEEARENYQSTDA”, the “soluble fraction (log2)” value was -0.0361. For “HMINIFKVKKAMEEIFASEWEDSPYTDQKISQILWSRGFSVSTGLVEKYRGQMGVPDANSRLNLN”, the “soluble fraction (log2)” value was -1.39. In the case of “HMINIGANIRAIRKQKNIKQVDLVRLLQLEGVEITRETLVKIESGVQHIKASQLRGIRDALGTTYDELL”, the “soluble fraction (log2)” value is reported as -0.863. With “HMINITALVKQLGGVDISKFNSAFKLLQQGKPLNTISNKVMADTFVALMKNSDEALNTKFRAAFKKI” the “soluble fraction (log2)” value was 0.0515. In the case of “HMINKIANLSAELRMEGLPVSIRSTQAAVKIYMDLGGDDRNLLKTALMSIYVKDRYDIPKFNKVFEKLFA”, the “soluble fraction (log2)” value is reported as 0.0706. With “HMINKQPKDYEYFLEKWHFTQTEKHQLHNLILKLNIRYPNKDFLKITENLDNGKLVLKKLEERLSKT” the “soluble fraction (log2)” value was -0.7. With “HMINNINKLPETQFIKLFANIFENSQFIAVALYKKKGDGFSDFKDLINKIMDIFENTTKEKKLKILNA” the “soluble fraction (log2)” value was -0.173. For “HMINPASEKQLSFANSLIAKKEGGTETLNHYLHNRKVSSLEELDRKDVSEIINALKFAKEVT”, the “soluble fraction (log2)” value was 0.0908. With “HMINRPVYVPLYTNLDVKDAAEIAEKLEENNIAYKLEDQGETILVNPEQKYKVRLMLAQEGLPKG” the “soluble fraction (log2)” value was 0.168. With “HMINSFDYLQAIFTELMKSQSKMTNQDAAKRLFMQGKVAVSNRDREGLRMVLAQLVTLLPKEELGGLSTVS” the “soluble fraction (log2)” value was ≥ 0.43. For “HMIPESVQGIEEFLATGALKGIGKKTAAAIVHKFGKDTLRIMEEEPERLAEVSGIGEKKAAAIGEAFALH”, the “soluble fraction (log2)” value was -0.236. With “HMIPNPMTDRELEVLGLLASGKTYKQVARALDLSQSTVRNHLHNVYHKLNVVDRAQAVIVSRENGW” the “soluble fraction (log2)” value was -0.29. In the case of “HMIPPGTITIEGAITKVPVFLDGKQIGTVPLTKEDVEPGKYRIRVLGVGRVITIDPGEKENVLFSGEDLGL”, the “soluble fraction (log2)” value is reported as -0.401. With “HMIPTDPNGDLIKILYTSDQINELYARAKLNDVEDLFLDWTKNVLGESNFEETGPTKNEYLIPQ” the “soluble fraction (log2)” value was -0.961. With “HMIPTTELAERLGTTKVANMIMLGALIKASGIISFDDMIKNLGELLGEGKAKLIKLNKEALEVGFN” the “soluble fraction (log2)” value was 0.0451. For “HMIPYSDLLKLLSNDAMPKFRNKDGWAKIHALETYLASRWSYQEYGFASFTVLLETVHNAEIRNDSVRLM”, the “soluble fraction (log2)” value was -0.0131. For “HMIQTMVVTDLKNGTIFKENGHPFIVLKYEHIKVSRGSAQVRVKMKNLITGQVLEKSWQSTAHVDDT”, the “soluble fraction (log2)” value was 0.186. With “HMIRMPNLIGLSVRSAEQQLVIAGLKKGIVHQVNDPRLKEVIDMQALGHKITAGSSIPKGTEVDLYIGNGT” the “soluble fraction (log2)” value was 0.282. For “HMISAVDLMAARRKIEAGITNLQPGQAFTLPNKVGWVKRMTGGSYFIQGNGGYTASVRTISEAIQAAAMLL”, the “soluble fraction (log2)” value was -0.0224. With “HMISDQENDLNLKHLFDTADQNKDGLILESELKMLMTNLEINKETYDTVMKQITPAGMDYKTFSSL” the “soluble fraction (log2)” value was -0.584. With “HMISFLNFVRKEIDASQLKDSTKQNHLTTIGLLQSFKPSIEFKDLNYNFITSFEKYLYDAGYQM” the “soluble fraction (log2)” value was 0.105. With “HMISKQQRQALILDIIQKQSITSQEALLTELQRHHVMTTQTTVSRDIRALGIVRIKDVNGELSYQQLQ” the “soluble fraction (log2)” value was -0.0545. With “HMISKRFQIDEDNSNKRIDIFLTQSLDSISRGIVQQLILENKVEVNGGPVKRNYLIKIGDVIDVKIDL” the “soluble fraction (log2)” value was -0.608. For “HMISKTFEINEDNINNRLDIFLANQFDNLSRGIVQKLIESHSVSVSGNFVEKDYKLKLGDIIDVEINLS”, the “soluble fraction (log2)” value was -0.853. For “HMISLNEDQKLAILNEWNQRPDDPPFIKELIELVFPDIPEEAKTGRSRYGIAIKKFLAEKSLQAKV”, the “soluble fraction (log2)” value was -0.554. With “HMISLPSYIREEATEVYNRLHDLGLEYTSLDVNDDSIPKGYVVRTVPEAGASVPAGQVVTVYVSLG” the “soluble fraction (log2)” value was -0.231. For “HMISQLRGKVLGTDRDALVIDVGGVGFRVSATAGARALAGQSGNEARLFTEMVVREDSIDLFGF”, the “soluble fraction (log2)” value was -0.245. In the case of “HMISRKIKELRLSHDLTQKDLADYLNLTPKMVSFYELGQRVPPSDIILKLAEKFHVSTDYLLGNEDRP”, the “soluble fraction (log2)” value is reported as -0.126. With “HMITDNEFLRIVSFLKQRYGIDMSQKKVIMNGRLENYLKSGGWSSFDEYMNDVEKDTSGDLEKTLVNFLTT” the “soluble fraction (log2)” value was -0.853. With “HMITETIGANIKTLRDKFRMSQQDLASKMNTARPVISNWENGKTEPSSSQLLKLAKIFDTSTDKILGNV” the “soluble fraction (log2)” value was 0.345. For “HMITKEDVANKKVNLLFFGNFHKMKLPDFEWGITEMMQDRDYLYGSLTKDLYFLGLVLDRKYKI”, the “soluble fraction (log2)” value was 0.124.
